Experimental data published in patent publication US20260184782A1 (TWIST BIOSCIENCE, published 2026).
Residue numbers refer to the chain shown, from its start.

T1: recombinant human TIGIT (human, UniProt Q495A1 22-141, limits assumed)
T1 construct: recombinant human TIGIT used in Carterra SPR; also called hTIGIT
T1 sequence (looked up): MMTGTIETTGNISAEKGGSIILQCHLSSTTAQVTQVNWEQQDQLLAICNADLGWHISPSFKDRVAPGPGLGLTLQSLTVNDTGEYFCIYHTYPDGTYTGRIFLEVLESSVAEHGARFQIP

B1: TIGIT-SC49 (Fc fusion)
VHH: EVQLVESGGGLVQPGGSLRLSCAASGRTFIGYHMGWFRQAPGKEREFVAAISWTGESTLYADSVKGRFTISADNSKNTAYLQMNSLKPEDTAVYYCARDDYGDYRRYFQHWGQGTLVTVSS
notes: VHH-Fc fusion in assay
B2: TIGIT-SC8 (Fc fusion)
VHH: EVQLVESGGGLVQPGGSLRLSCAASGFAFSSYAMGWFRQAPGKEREFVARITWNGGSAYYADSVKGRFTISADNSKNTAYLQMNSLKPEDTAVYYCAAGATGWFDPWGQGTLVTVSS
notes: VHH-Fc fusion in assay
B3: TIGIT-SC32 (Fc fusion)
VHH: EVQLVESGGGLVQPGGSLRLSCAASGFAFGDSWMGWFRQAPGKERELVAAIDWSGGSALYADSVKGRFTISADNSKNTALQMNSLKPEDTAVYYCAKVHSDFRAGWDVWGQGTLVTVSS
notes: VHH-Fc fusion in assay
B4: TIGIT-SC22 (Fc fusion)
VHH: EVQLVESGGGLVQPGGSLRLSCAASGFTLENNMMGWFRQAPGKEREMVAAISWSGGSALYADSVKGRFTISADNSKNTAYLQMNSLKPEDTAVYYCARGDGYSYGNFDYWGQGTLVTVSS
notes: VHH-Fc fusion in assay
B5: TIGIT-SC179 (Fc fusion)
VHH: EVQLVESGGGLVQPGGSLRLSCAASGFTFSPSWMGWFRQAPGKEREWVASVLRGGYTWYADSVKGRFTISADNSKNTAYLQMNSLKPEDTAVYYCASEVASGETDYWGQGTLVTVSS
notes: VHH-Fc fusion in assay
B6: TIGIT-SC168 (Fc fusion)
VHH: EVQLVESGGGLVQPGGSLRLSCAASGFTFDRSWMGWFRQAPGKEREWVASVLRGGYAWYADSVKGRFTISADNSKNTAYLQMSSLKPEDTAVYYCAREGSGYASDYWGQGTLVTVSS
notes: VHH-Fc fusion in assay
B7: TIGIT-SC178 (Fc fusion)
VHH: B5 VHH with F29L
notes: VHH-Fc fusion in assay
B8: TIGIT-SC163 (Fc fusion)
VHH: B6 VHH with A57T, S83N, R97T, E98D, G99K, S100R, Y102P, A103H, S104P
notes: VHH-Fc fusion in assay
B9: TIGIT-SC184 (Fc fusion)
VHH: EVQLVESGGGLVQPGGSLRLSCAASGFTFSPSWMGWFRQAPGKEREWVASVLRGGYTWYADSVKGRFTISADNSKNTAYLQMNSLKPEDTAVYYCTTDRGYNWNYDWGQGTLVTVSS
notes: VHH-Fc fusion in assay
B10: TIGIT-SC166 (Fc fusion)
VHH: B6 VHH with A57T, S83N
notes: VHH-Fc fusion in assay
B11: TIGIT-SC151 (Fc fusion)
VHH: EVQLVESGGGLVQPGGSLRLSCAASGFPFSIYPMGWFRQAPGKEREFVAAISASGTLRAYADSVKGRFTISADNSKNTAYLQMNSLKPEDTAVYYCARSSSWVRIFDYWGQGTLVTVSS
notes: VHH-Fc fusion in assay
B12: TIGIT-SC18 (Fc fusion)
VHH: EVQLVESGGGLVQPGGSLRLSCAASGFSLDYYAMGWFRQAPGKEREVVAIIDTNGDNTLYADSVKGRFTISADNSKNTAYLQMNSLKPEDTAVYYCARGRGYGDYVGAYWGQGTLVTVSS
notes: VHH-Fc fusion in assay
B13: TIGIT-SC100 (Fc fusion)
VHH: EVQLVESGGGLVQPGGSLRLSCAASGRTLSDRAMGWFRQAPGKEREFVAAITDNGGSTYYADSVKGRFTISADNSKNTAYLQMNSLKPEDTAVYYCARWYSSSGDYYYMDVWGQGTLVTVSS
notes: VHH-Fc fusion in assay
B14: TIGIT-SC101 (Fc fusion)
VHH: B13 VHH with L29F, D31S, R32Y, T52D, D53W, N54S, G55D
notes: VHH-Fc fusion in assay
B15: TIGIT-SC67 (Fc fusion)
VHH: EVQLVESGGGLVQPGGSLRLSCAASGFTFDRSWMGWFRQAPGKEREWVSTIYSNGTPAYADSVKGRFTISADNSKNTAYLQMNSLKPEDTAVYYCARRGLPSYSYGMDVWGQGTLVTVSS
notes: VHH-Fc fusion in assay
B16: TIGIT-SC52 (Fc fusion)
VHH: EVQLVESGGGLVQPGGSLRLSCAASGFLFDSYAMGWFRQAPGKEREFVAAISTGGGWRTYADSVKGRFTISADNSKNTAYLQMNSLKPEDTAVYYCAKRGNDNWYFDLWGQGTLVTVSS
notes: VHH-Fc fusion in assay
B17: TIGIT-SC81 (Fc fusion)
VHH: EVQLVESGGGLVQPGGSLRLSCAASGRSFKDDAMGWFRQAPGKEREFVAAISWSGDSTHYADSVKGRFTISADNSKNTAYLQMNSLKPEDTAVYYCARWVWASGTYWIDYWGQGTLVTVSS
notes: VHH-Fc fusion in assay
B18: TIGIT-SC211 (Fc fusion)
VHH: EVQLVESGGGLVQPGGSLRLSCAASGFSFSMYVMGWFRQAPGKEREFVAAIWRSGTLKAYADSVKGRFTISADNSKNTAYLQMNSLKPGDTAVYYCARDHRAMVAPFDYWGQGTLVTVSS
notes: VHH-Fc fusion in assay
B19: TIGIT-SC126 (Fc fusion)
VHH: EVQLVESGGGLVQPGGSLRLSCAASGSIFSGNVMGWFRQAPGKERELVAAISNSASSTVYADSVKGRFTISADNSKNTAYLQMNSLKPEDTAVYYCARDWNLFDYWGQGTLVTVSS
notes: VHH-Fc fusion in assay
B20: TIGIT-SC212 (Fc fusion)
VHH: EVQLVESGGGLVQPGGSLRLSCAASGFLFDSYAMGWFRQAPGKEREFVAAIWRSGTLKAYADSVKGRFTISADNSKNTAYLQMNSLKPEDTAVYYCARWVGASGDYWIDYWGQGTLVTVSS
notes: VHH-Fc fusion in assay
B21: TIGIT-SC206 (Fc fusion)
VHH: EVQLVESGGGLVQPGGSLRLSCAASGFLFDSYVMGWFRQAPGKEREFVAAIWRSGTLKAYADSVKGRFTISADNSKNTAYLQMNGLKPEDTAVYYCAGVGTDYGDYLFNYWGQGTLVTVSS
notes: VHH-Fc fusion in assay
B22: TIGIT-SC213 (Fc fusion)
VHH: B20 VHH with F27T, L28F, F29Q, D30R, S31I, Y32N
notes: VHH-Fc fusion in assay
B23: TIGIT-SC104 (Fc fusion)
VHH: EVQLVESGGGLVQPGGSLRLSCAASGFTFSTYTMGWFRQAPGKEREFVAAISPSGNTYYADSVKGRFTISADNSKNTAYLQMNSLKPEDTAVYYCARWGGITFGGVYPLDYWGQGTLVTVSS
notes: VHH-Fc fusion in assay

target: T1, recombinant human TIGIT; experiment: SPR Carterra, average
Procedure: Binding affinities of VHH-Fc proteins to recombinant human TIGIT were measured by SPR using a Carterra instrument (Table 10A). […] Average values reported from measurements from 1-2 samples.

Row | Kd | koff | kon | Binder
1 | 14.4 nM | 0.00102 s⁻¹ | 129000 M⁻¹ s⁻¹ | B1
2 | 14.6 nM | 0.000753 s⁻¹ | 156000 M⁻¹ s⁻¹ | B2
3 | 16.6 nM | 0.00243 s⁻¹ | 147000 M⁻¹ s⁻¹ | B3
4 | 17.7 nM | 0.00118 s⁻¹ | 70300 M⁻¹ s⁻¹ | B4
5 | 51.1 nM | 0.00269 s⁻¹ | 50400 M⁻¹ s⁻¹ | B5
6 | 83.6 nM | 0.00254 s⁻¹ | 30400 M⁻¹ s⁻¹ | B6
7 | 296 nM | 0.0776 s⁻¹ | 262000 M⁻¹ s⁻¹ | B7
8 | 86.4 nM | 0.00269 s⁻¹ | 38400 M⁻¹ s⁻¹ | B8
9 | 12.7 nM | 0.014 s⁻¹ | 1.11e+06 M⁻¹ s⁻¹ | B9
10 | 24.9 nM | 0.00147 s⁻¹ | 58400 M⁻¹ s⁻¹ | B10
11 | 16.8 nM | 0.00479 s⁻¹ | 285000 M⁻¹ s⁻¹ | B11
12 | 16.3 nM | 0.00225 s⁻¹ | 141000 M⁻¹ s⁻¹ | B12
13 | 15.1 nM | 0.00183 s⁻¹ | 122000 M⁻¹ s⁻¹ | B13
14 | 73.4 nM | 0.00421 s⁻¹ | 67800 M⁻¹ s⁻¹ | B14
15 | 18 nM | 0.00402 s⁻¹ | 224000 M⁻¹ s⁻¹ | B15
16 | 17.7 nM | 0.00175 s⁻¹ | 101000 M⁻¹ s⁻¹ | B16
17 | 15.3 nM | 0.00233 s⁻¹ | 169000 M⁻¹ s⁻¹ | B17
18 | 13 nM | 8.53e-05 s⁻¹ | 6540 M⁻¹ s⁻¹ | B18
19 | 18.6 nM | 0.013 s⁻¹ | 871000 M⁻¹ s⁻¹ | B19
20 | 17.1 nM | 0.00126 s⁻¹ | 74100 M⁻¹ s⁻¹ | B20
21 | 15.6 nM | 0.0157 s⁻¹ | 1e+06 M⁻¹ s⁻¹ | B21
22 | 36.4 nM | 0.00285 s⁻¹ | 78400 M⁻¹ s⁻¹ | B22
23 | 15.2 nM | 0.00375 s⁻¹ | 247000 M⁻¹ s⁻¹ | B23
